B1: SH13 (Fab, V domains shown)
VH: EVQLLESGGGVVQPGRSLRLSCAASGFTFSSYGMHWVRQAPGKGLEWVAVVYYDGSNKHYSDSVKGRFTISRDNSKNTLYLQMDSLRAEDTAVYYCARERNFRSGYSRYYYGMDVWGPGTTVTVSS
VL: not shown
notes: Fab/phage
B2: SH56 (Fab, V domains shown)
VH: B1 VH with S71F
VL: AELTQSPSSLSASVGDRVTITCRASQSISRYLNWYQQKPGKAPKLLIYAASSLQSGVPSRFSGSGSGTDFALTISSLLPEDFATYYCQQGYSTPPYSFGQGTKLEIKR
notes: Fab/phage
B3: SH17 (Fab, V domains shown)
VH: EVQLLESGGGLVQPGGSLRLSCGASGIPFVSSWMAWVRQAPGKGLEWVANIKQDGSKKNYVDSVEGRFTISRDNAKNSLYLQMDSLRAEDTRIYYCARDSLTCFDYWGQGALVTVSS
VL: AELQDPVVSVALGQTVRITCQGDGLRSYYASWYQQKPGQAPKLVMYGRNNRPSGIPGRFSGSSSGQTAALTITGTQAEDEADYYCQSRATSGNPVVFGGGTKLTVL
notes: Fab/phage

Substitutions are numbered along the chain they refer to.

The target of this assay is T1, human Rh(D) antigen (human, UniProt Q02161 2-417).
T1 construct: whole, on cells; also called wt; wild-type Rh(D) on Rh(D)-positive RBCs
T1 sequence (looked up): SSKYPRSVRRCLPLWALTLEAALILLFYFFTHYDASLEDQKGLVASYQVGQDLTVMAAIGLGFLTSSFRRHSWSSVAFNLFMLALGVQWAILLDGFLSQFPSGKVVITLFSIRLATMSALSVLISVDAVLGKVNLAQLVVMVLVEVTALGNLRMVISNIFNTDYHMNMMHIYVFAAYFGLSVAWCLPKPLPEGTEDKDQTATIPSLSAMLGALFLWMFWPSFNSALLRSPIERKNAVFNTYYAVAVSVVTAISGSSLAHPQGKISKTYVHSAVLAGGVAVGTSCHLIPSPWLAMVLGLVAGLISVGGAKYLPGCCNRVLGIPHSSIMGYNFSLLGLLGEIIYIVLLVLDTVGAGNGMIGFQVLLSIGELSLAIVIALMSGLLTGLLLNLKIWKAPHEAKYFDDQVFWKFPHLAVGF
The assay can be described thus: Fab/phage agglutination (anti-M13). On the procedure:
Following a one-hour incubation at 37° C., the RBCs were washed 3 times with 2 ml of cold PBS to remove unbound antibody. The resulting RBC pellets were resuspended in 100 μl of a 10 μg/ml solution of sheep anti-M13 antibody (5 Prime-3 Prime, Boulder, Colo.) for Fab/phage experiments or goat anti-human κ or λ light chain antibody (Tago, Burlingame, Calif.) for γ₁κ or γ₁λ soluble Fab experiments, respectively. The RBC suspensions were transferred to the round-bottomed wells of a 96-well microplate and left undisturbed for […]. Negative reactions show sharp ˜2 millimeter diameter RBC spots whereas the RBCs in agglutinated wells form a thin carpet coating the entire floor of the well (Siegel et al., 1997, J. Immunol. Meth. 206:73). Agglutination titers for recombinant antibodies were determined by performing serial 2-fold dilutions in 1% BSA/PBS.
Fifty-six randomly chosen colonies were selected, and monoclonal Fab/phage preparations were separately produced from each of these individual colonies, using the methods described herein in Example 1. Rh(D) specificity was determined by indirect agglutination using anti-M13 antibody, as described herein in Examples 1 and 2.
In the case of B1, the binding result was “binds”.

With B2, the binding result is given as “binds”.

For B3, the binding result was “binds”.
